# PMC8501954
# Target: tRip1-402 (Plasmodium falciparum) (UniProt Q8IL48)
# Assay: competition EMSA
# Settings: unmodified transcript; scale: fold difference from Sc tRNAPheGAA
substance,measurement,value
minihelixPhe,binding signal,< 2
